Reference: PMC2716121 (Journal of molecular biology, 2009)

Assays:
Assay in all cases: AUC
[1] = target: Wild-type PhoB, phosphorylated (Escherichia coli) (UniProt P0AFJ5)
[2] = target: PhoB^F20D, phosphorylated (Escherichia coli) (UniProt P0AFJ5)
[3] = target: Wild-type PhoB, unphosphorylated (Escherichia coli) (UniProt P0AFJ5)
AUC = target: the molecule itself

Wild-type PhoB, phosphorylated (from UniProt P0AFJ5 1-229) (natural protein)
Kd [1]: 5.1 µM

PhoB^F20D, phosphorylated (from UniProt P0AFJ5 1-229) (natural protein)
Kd [2]: 2800 nM

Wild-type PhoB, unphosphorylated (from UniProt P0AFJ5 1-229) (natural protein)
Kd [3]: 378 µM

B1: PhoB^R91E/E111R, unphosphorylated (natural protein, Escherichia coli, UniProt P0AFJ5 1-229, looked up)
chain: MARRILVVEDEAPIREMVCFVLEQNGFQPVEAEDYDSAVNQLNEPWPDLILLDWMLPGGSGIQFIKHLKRESMTRDIPVVMLTARGEEEDEVRGLETGADDYITKPFSPKRLVARIKAVMRRISPMAVEEVIEMQGLSLDPTSHRVMAGEEPLEMGPTEFKLLHFFMTHPERVYSREQLLNHVWGTNVYVEDRTVDVHIRRLRKALEPGGHDRMVQTVRGTGYRFSTRF
binding result (AUC): binds

B2: PhoB^R91E/E111R, phosphorylated (natural protein, Escherichia coli, UniProt P0AFJ5 1-229, looked up)
chain: MARRILVVEDEAPIREMVCFVLEQNGFQPVEAEDYDSAVNQLNEPWPDLILLDWMLPGGSGIQFIKHLKRESMTRDIPVVMLTARGEEEDEVRGLETGADDYITKPFSPKRLVARIKAVMRRISPMAVEEVIEMQGLSLDPTSHRVMAGEEPLEMGPTEFKLLHFFMTHPERVYSREQLLNHVWGTNVYVEDRTVDVHIRRLRKALEPGGHDRMVQTVRGTGYRFSTRF
modifications: phosphorylated at D53 (site of phosphorylation) with phosphoramidate; 100% phosphorylated at steady state
binding result (AUC): binds
